# According to IntAct's records for PubMed 21378754:
# What was measured:
# rab8a_human RAB8A [1] = molecular target: rab8a_human RAB8A (UniProt P61006)
# rab5a_human RAB5A = rab5a_human RAB5A (UniProt P20339)
# rab6a_human RAB6A = rab6a_human RAB6A (UniProt P20340)
# rab1b_human RAB1B = rab1b_human RAB1B (UniProt Q9H0U4)
# rab8a_human RAB8A [2] = molecular target: rab8a_human RAB8A (UniProt P61006); remark: listed apart in the source
# rab8a_human RAB8A [3] = molecular target: rab8a_human RAB8A (UniProt P61006); remark: listed apart in the source
# rab8a_human RAB8A, sequence (P61006 whole entry): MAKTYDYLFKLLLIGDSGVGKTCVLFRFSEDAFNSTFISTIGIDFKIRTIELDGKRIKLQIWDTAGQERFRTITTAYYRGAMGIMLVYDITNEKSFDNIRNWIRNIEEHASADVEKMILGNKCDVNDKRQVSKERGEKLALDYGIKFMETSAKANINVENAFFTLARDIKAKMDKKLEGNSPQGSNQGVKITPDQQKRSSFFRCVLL
# Inositol polyphosphate 5-phosphatase OCRL (Homo sapiens), Q01968 F668V, sequence (Q01968 whole entry F668V): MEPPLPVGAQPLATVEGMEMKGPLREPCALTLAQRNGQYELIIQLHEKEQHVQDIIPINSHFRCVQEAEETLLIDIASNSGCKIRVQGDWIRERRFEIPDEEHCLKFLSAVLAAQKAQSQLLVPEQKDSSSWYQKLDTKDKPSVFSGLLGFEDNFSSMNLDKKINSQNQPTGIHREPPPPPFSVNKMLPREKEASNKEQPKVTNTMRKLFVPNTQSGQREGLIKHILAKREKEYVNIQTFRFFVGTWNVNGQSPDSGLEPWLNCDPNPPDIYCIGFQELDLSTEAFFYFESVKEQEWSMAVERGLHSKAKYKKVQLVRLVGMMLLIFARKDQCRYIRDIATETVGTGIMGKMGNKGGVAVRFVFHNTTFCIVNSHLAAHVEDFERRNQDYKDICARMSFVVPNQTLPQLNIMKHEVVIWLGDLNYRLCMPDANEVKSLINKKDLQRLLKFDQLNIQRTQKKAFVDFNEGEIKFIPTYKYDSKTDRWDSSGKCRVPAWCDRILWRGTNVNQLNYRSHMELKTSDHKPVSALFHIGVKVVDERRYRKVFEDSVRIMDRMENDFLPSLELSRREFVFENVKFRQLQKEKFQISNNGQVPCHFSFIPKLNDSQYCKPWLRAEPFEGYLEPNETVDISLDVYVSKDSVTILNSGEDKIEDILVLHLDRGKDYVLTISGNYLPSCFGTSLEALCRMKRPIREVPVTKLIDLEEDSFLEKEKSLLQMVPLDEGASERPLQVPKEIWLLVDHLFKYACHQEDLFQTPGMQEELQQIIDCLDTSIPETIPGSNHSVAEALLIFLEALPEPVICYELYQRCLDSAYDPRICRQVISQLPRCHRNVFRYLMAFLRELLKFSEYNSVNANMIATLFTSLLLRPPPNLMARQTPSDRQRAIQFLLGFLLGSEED
# Inositol polyphosphate 5-phosphatase OCRL (Homo sapiens), Q01968 F668A, sequence (Q01968 whole entry F668A): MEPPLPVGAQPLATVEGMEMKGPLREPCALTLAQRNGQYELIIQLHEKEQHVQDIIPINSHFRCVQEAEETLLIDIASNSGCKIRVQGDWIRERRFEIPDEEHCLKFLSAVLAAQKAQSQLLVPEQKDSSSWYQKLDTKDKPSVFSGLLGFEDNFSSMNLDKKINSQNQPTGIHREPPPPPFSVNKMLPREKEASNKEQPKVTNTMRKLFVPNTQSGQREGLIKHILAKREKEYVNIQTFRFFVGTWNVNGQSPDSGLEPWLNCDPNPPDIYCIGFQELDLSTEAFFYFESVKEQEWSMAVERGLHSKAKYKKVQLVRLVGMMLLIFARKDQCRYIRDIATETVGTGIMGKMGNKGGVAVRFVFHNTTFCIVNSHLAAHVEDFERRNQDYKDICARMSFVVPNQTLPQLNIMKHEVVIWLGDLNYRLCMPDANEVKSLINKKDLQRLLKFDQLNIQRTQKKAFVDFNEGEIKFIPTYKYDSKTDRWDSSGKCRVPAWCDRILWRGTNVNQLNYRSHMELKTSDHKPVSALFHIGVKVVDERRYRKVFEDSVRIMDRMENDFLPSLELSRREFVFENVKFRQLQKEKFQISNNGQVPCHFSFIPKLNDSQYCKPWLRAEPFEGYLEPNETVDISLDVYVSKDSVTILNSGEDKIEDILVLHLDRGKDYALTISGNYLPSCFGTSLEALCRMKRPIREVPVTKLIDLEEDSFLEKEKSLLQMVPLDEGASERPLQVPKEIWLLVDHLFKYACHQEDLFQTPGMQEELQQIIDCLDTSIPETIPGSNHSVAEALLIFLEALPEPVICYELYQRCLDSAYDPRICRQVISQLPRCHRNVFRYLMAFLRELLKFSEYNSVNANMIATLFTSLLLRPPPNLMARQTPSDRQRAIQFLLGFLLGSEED
# rab5a_human RAB5A, sequence (P20339 whole entry): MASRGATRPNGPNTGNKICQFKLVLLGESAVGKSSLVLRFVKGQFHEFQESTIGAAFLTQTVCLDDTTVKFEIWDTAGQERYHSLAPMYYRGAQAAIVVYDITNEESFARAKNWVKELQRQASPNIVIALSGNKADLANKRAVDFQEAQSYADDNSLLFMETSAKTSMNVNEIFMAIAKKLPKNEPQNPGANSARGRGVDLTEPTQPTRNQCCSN
# rab6a_human RAB6A, sequence (P20340 whole entry, looked up): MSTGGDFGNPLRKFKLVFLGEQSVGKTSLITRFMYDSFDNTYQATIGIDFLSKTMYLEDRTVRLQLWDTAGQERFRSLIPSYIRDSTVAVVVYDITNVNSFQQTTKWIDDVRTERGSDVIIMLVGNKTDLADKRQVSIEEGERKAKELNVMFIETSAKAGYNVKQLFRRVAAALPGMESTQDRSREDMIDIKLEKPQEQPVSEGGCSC
# rab1b_human RAB1B, sequence (Q9H0U4 whole entry): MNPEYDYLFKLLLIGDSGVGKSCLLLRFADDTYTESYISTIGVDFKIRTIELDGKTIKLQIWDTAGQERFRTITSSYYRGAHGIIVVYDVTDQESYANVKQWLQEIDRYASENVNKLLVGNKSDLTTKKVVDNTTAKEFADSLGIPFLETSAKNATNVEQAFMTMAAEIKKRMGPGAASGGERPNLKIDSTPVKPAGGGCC
Substance,effect of a mutation on the interaction (rab8a_human RAB8A [1]),effect of a mutation on the interaction (rab5a_human RAB5A),effect of a mutation on the interaction (rab6a_human RAB6A),effect of a mutation on the interaction (rab1b_human RAB1B),effect of a mutation on the interaction (rab8a_human RAB8A [2]),effect of a mutation on the interaction (rab8a_human RAB8A [3])
"Inositol polyphosphate 5-phosphatase OCRL (Homo sapiens), Q01968 F668A",decreasing interaction,disrupting interaction,,,,
"Inositol polyphosphate 5-phosphatase OCRL (Homo sapiens), Q01968 F668V",,,disrupting interaction,disrupting interaction,disrupting interaction,decreasing interaction
